Reference: the supplement of paper PMC7877785
± gives the uncertainty stated by the source.

Assay: self-splicing fitness, log relative to wild type (ln ratio); higher = more splicing; Tetrahymena group I intron in knt gene, E. coli kanamycin selection, DiMSum; sequences stand for … in CUCUCU…GGAGGGAAAAGUUAUCAGGCAUGCACCUGGUAGCUAGUCUUUAAACCAAUAGAUUGCAUCGGUUUAAAAGGCAAGACCGUCAAAUUGCGGGAAAGGGGUCAACAGCCGUUCAGUACCAAGUCUCAGGGGAAACUUUGAGAUGGCCUUGCAAAGGGUAUGGUAAUAAGCUGACGGACAUGGUCCUAACCACGCAGCCAAGUCCUAAGUCAACAGAUCUUCUGUUGAUAUGGAUGCAGUUCACAGACUAAAUGUCGGUCGGGGAAGAUGUAUUCUUCUCAUAAGAUAUAGUCGGACCUCUCCUUAAUGGGAGCUAGCGGAUGAAGUGAUGCAACACUGGAGCCGCUGGGAACUAAUUUGUAUGCGAAAGUAUAUUGAUUAGUUUUGGAGUACUCGUGGUCG
How it was run: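 Colonies from six replicate transformations of E. coli BL21(DE3) were pooled and amplicon-sequenced on an Illumina HiSeq 2500. The library placed an intron with all eight P1ex-region nucleotides randomised inside the knt kanamycin-resistance gene on pET-22b(+), and cells grew overnight at 37°C or 30°C on LB agar with or without 25 μg/mL kanamycin (plus 100 μg/mL carbenicillin, 50 μM IPTG, 0.2% rhamnose). Fitness is the DiMSum error-weighted combination of wild-type-normalised replicate fold changes, kanamycin versus none.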

Sequence | self-splicing fitness (ln) (30 °C) | self-splicing fitness (ln) (37 °C)
GAAUAGCAAUAUUACGAGCC | -1.48 ± 0.17 | 0.00455 ± 0.17
GAAUAGCAAUAUUACGAGCU | -1.21 ± 0.081 | -0.335 ± 0.1
GAAUAGCAAUAUUACGAUCU | 0.384 ± 0.078 | -0.286 ± 0.079
GAAUAGCAAUAUUACGCAAC | -2.63 ± 0.21 | -1.77 ± 0.3
GAAUAGCAAUAUUACGCCAA | -2.44 ± 0.23 | -1.39 ± 0.16
GAAUAGCAAUAUUACGGAAC | -2.37 ± 0.16 | -0.0927 ± 0.15
GAAUAGCAAUAUUACGGAAU | -2.69 ± 0.17 | -1.66 ± 0.2
GAAUAGCAAUAUUACGGAUC | -0.118 ± 0.058 | -0.207 ± 0.073
GAAUAGCAAUAUUACGGCAA | -0.403 ± 0.14 | -0.118 ± 0.14
GAAUAGCAAUAUUACGGCAU | -0.386 ± 0.065 | -0.0278 ± 0.083
GAAUAGCAAUAUUACGGUCA | -0.00851 ± 0.072 | -0.154 ± 0.077
GAAUAGCAAUAUUACGGUGU | -3 ± 0.13 | -1.58 ± 0.14
GAAUAGCAAUAUUACGUAGC | -3.4 ± 0.17 | -1.1 ± 0.12
GAAUAGCAAUAUUACGUCAA | -2.1 ± 0.14 | -1.95 ± 0.13
GAAUAGCAAUAUUACGUCAG | -3.69 ± 0.31 | -3.11 ± 0.4
GAAUAGCAAUAUUACGUCUU | -0.449 ± 0.059 | 0.342 ± 0.074
GAAUAGCAAUAUUACGUGUA | -1.82 ± 0.12 | -1.49 ± 0.13
GACAAGCAAUAUUACGAAGU | -4.61 ± 0.27 | -2.18 ± 0.14
GACAAGCAAUAUUACGACAA | -0.668 ± 0.11 | -0.951 ± 0.1
GACAAGCAAUAUUACGACCG | -0.672 ± 0.21 | -0.326 ± 0.34
GACAAGCAAUAUUACGACUU | -0.00142 ± 0.071 | 0.381 ± 0.088

Sequence | self-splicing fitness (ln) (30 °C) | self-splicing fitness (ln) (37 °C)
GACAAGCAAUAUUACGAUCA | 0.0763 ± 0.12 | -0.0166 ± 0.15
GACAAGCAAUAUUACGCACA | -0.149 ± 0.086 | -0.296 ± 0.11
GACAAGCAAUAUUACGCAGA | -3.04 ± 0.18 | -1.83 ± 0.14
GACAAGCAAUAUUACGCAGG | -3 ± 0.13 | -1.71 ± 0.13
GACAAGCAAUAUUACGCGAC | -1.52 ± 0.15 | -1.63 ± 0.19
GACAAGCAAUAUUACGCGCC | -2.58 ± 0.18 | -1.08 ± 0.21
GACAAGCAAUAUUACGCUAC | -3.62 ± 0.31 | -2.54 ± 0.23
GACAAGCAAUAUUACGGAAA | -2.13 ± 0.2 | -2 ± 0.23
GACAAGCAAUAUUACGGACC | -1.32 ± 0.1 | -0.785 ± 0.11
GACAAGCAAUAUUACGGAUG | -2.92 ± 0.11 | -1.75 ± 0.12
GACAAGCAAUAUUACGGAUU | -2.16 ± 0.076 | -0.656 ± 0.076
GACAAGCAAUAUUACGGCGG | -3.27 ± 0.29 | -1.87 ± 0.18
GACAAGCAAUAUUACGGUAC | -2.81 ± 0.13 | -2.64 ± 0.16
GACAAGCAAUAUUACGGUAG | -1.84 ± 0.098 | -0.222 ± 0.092
GACAAGCAAUAUUACGGUGC | -2.77 ± 0.21 | -1.63 ± 0.24
GACAAGCAAUAUUACGUCAC | -2.9 ± 0.23 | -2.75 ± 0.29
GACAAGCAAUAUUACGUCCA | -2.8 ± 0.14 | -1.42 ± 0.13
GACAAGCAAUAUUACGUCCG | -1.98 ± 0.27 | -2.47 ± 0.28
GACAAGCAAUAUUACGUCGU | -3.44 ± 0.14 | -2.24 ± 0.11
GACAAGCAAUAUUACGUGGU | -3.63 ± 0.11 | -2.76 ± 0.12
GACAAGCAAUAUUACGUUUG | -2.88 ± 0.094 | -2.64 ± 0.13
